Source: PMC7145534, “Are the intrinsically disordered linkers involved in SSB binding to accessory proteins?” (Nucleic Acids Research, 2019)
Entries after “also recorded” stand apart in the source; their conditions may differ.

Legend:
E. coli RecO = assay: ITC of SSB tetramers (apo) binding to RecO; design: species or system Escherichia coli
Experimental: The concentrations were determined thereafter.

χ = assay: ITC of SSB-A binding to χ; design: species or system Escherichia coli; conditions: Buffer T pH 8.1, 200 mM NaCl, 25°C
Experimental: The concentrations were determined thereafter. […]
Figure S7. Results from various control ITC titrations of (a) SSB-A and RecO at 15°C and (b) 25°C, (c) SSB-A and c, (d) P65 and (dT)70, (e) (dT)70 and SSB-A, and (f) (dT)70 and wtSSB. (a) SSB-A (10 µM), a homo-tetrameric SSB variant containing an additional six amino acids, TGASGT, at the C-terminus of each subunit, was titrated into […]
(5.9 µM) was titrated into c (1 µM) in buffer T (10 mM Tris-HCl, pH 8.1, 200 mM NaCl, […]
0.1 mM EDTA) at 25° C. […] (d) dT70 (60 µM) was […]
titrated into P65 (2 µM) in buffer BTP (pH 7.0, 20 mM NaCl) at 25° C. P65, the full-length […]
(dT)70. (e) (dT)70 (15 µM) was titrated into SSB-A (1 µM) in buffer T at 25° C. SSB-A (also on this page, place not known: 15°C 25°C. 25°C. 25°C. 25°C. 2.00 kcal mol-1 of injectant kcal mol-1 of injectant [SSB-A]tot/[RecO]tot kcal mol-1 of injectant [SSB-A]tot/[c]tot (f)(d))

(dT)70 = assay: ITC of SSB tetramers with (dT)70; assay type: binding
Experimental: Isothermal titration calorimetry (ITC) experiments were performed using a VP-ITC titration microcalorimeter (Malvern Panalytical, Malvern, UK) ([68]). All proteins and oligonucleotides were dialyzed extensively against the indicated buffer and cleared by centrifugation at 14 000 rpm for 15 min at 4°C. The concentrations were determined thereafter. For experiments with the SSB-Ct peptides and SIPs, 40–50 μM peptides were titrated into 1–2 μM SIPs in Buffer BTP at pH 8.0 and 50 mM NaCl. For experiments with the full-length SSB and its deletion mutants and SIPs, SSB tetramer (8–10 μM) was titrated into SIP (1 μM) in Buffer BTP at pH 7.0 and 200 mM NaCl. The heats of dilution were obtained by blank titrations in which the titrant species is titrated into the buffer, and corrections for heats of dilution were applied.
RecO (1 µM) in buffer BTP (pH 7.0, 200 mM NaCl) at 15° C and (b) 25° C.
(f) (dT)70 (15 µM) is titrated into

PriA = conditions: previous study; cited from earlier work
Experimental: All binding reactions were performed under identical solution conditions, although additional experiments were performed at a lower [NaCl] for PriC as indicated, ...

DNA Pol III (χ) = conditions: cited from earlier work
Description: When DNA is bound to the DBD, the acidic tip no longer interacts with the DBD and thus is more available to interact with a SIP. This is supported by the observation that ΔH = −6.0 ± 0.1 kcal/mol for RecO binding to the SSBΔ120-166–(dT)70 complex, which should not contain contributions from the acidic tip-DBD intramolecular interactions.

[1] = target: Escherichia coli PriC (E. coli) (UniProt P23862); assay: AUC; sedimentation velocity, 42 000 rpm, 25°C; PriC at 2 μM, without and with 30-fold excess P15; buffer BTP pH 8.0, same conditions as the ITC of PriC
RecO = conditions: for sedimentation coefficient, SSB alone: 0.35 μM tetramer, BTP pH 7.0, 200 mM NaCl, 25°C, no RecO
Experimental: Sedimentation velocity experiments were performed with an Optima XL-A analytical ultracentrifuge and An50Ti rotor (Beckman Coulter, Fullerton, CA, USA) at 42 000 rpm (25°C) as described ([50]). The concentrations used were 1–2 μM SIPs, 0.3–0.5 μM SSB tetramers, while monitoring absorbance at 230 or 280 nm. The experiments with SSB-Ct peptides were performed in Buffer BTP at pH 8.0 and 50 mM NaCl. The experiment with SSB proteins and the deletion constructs were performed in Buffer BTP at pH 7.0 and 200 mm NaCl. The sample (380 μl) and buffer (394 μl) were loaded into each sector of an Epon charcoal-filled two-sector centerpiece. Absorbance data were collected by scanning the sample cells at intervals of 0.003 cm. Data were analyzed using SEDFIT, to obtain c(s) distributions ([70]). The c(s) distribution function defines the populations of species with different sedimentation rates and represents a variant of the distribution of Lamm equation solutions ([70]). The density and viscosity of the experimental buffers at 25°C were determined using [sequence] […] The partial specific volume of (dT)70 used was 0.56 ml/g. In the experiments involving more than one species, the partial specific volumes of complexes were calculated assuming additivity using Equation (4), where = number of moles of species ‘i’, = molecular weight of species ‘i’, and = partial specific volume of each species i.(4)
RecO binding to SSB tetramers with portions of the IDL deleted. […] (C) The results of sedimentation velocity experiments, plotted as the c(s) distribution ([70]) for each SSB construct (0.35 μM tetramer) in the absence (black lines) and presence (red lines) of 2.5 molar excess of RecO (3.5 μM) per C-terminus.

[2] = target: Escherichia coli RecO protein (E. coli) (UniProt P0A7H3); assay: ITC; apo SSBΔ120-166 tetramer and RecO; 10°C; N fixed to 4 in Table 3
[3] = target: Escherichia coli RecO protein (E. coli) (UniProt P0A7H3); assay: ITC; SSB tetramer–(dT)70 complex (9–10 μM) titrated into RecO (1 μM); buffer BTP pH 7.0, 200 mM NaCl, 25°C; N fixed to 4, K and ΔH per C-terminus
[4] = target: Escherichia coli RecO protein (E. coli) (UniProt P0A7H3); assay: ITC; SSB tetramer (10 µM) titrated into RecO (1 µM); buffer BTP pH 7.0, 200 mM NaCl, 10°C; N floated, N = RecO per SSB tetramer; ΔH per C-terminus
[5] = target: Escherichia coli RecO protein (E. coli) (UniProt P0A7H3); assay: ITC; apo SSB tetramer (9–10 μM) titrated into RecO (1 μM); buffer BTP pH 7.0, 200 mM NaCl, 25°C; N fixed to 4 RecO per tetramer, K and ΔH per C-terminus
[6] = target: the molecule itself; assay: AUC; sedimentation velocity, 42 000 rpm, 25°C; SSB construct 0.35 μM tetramer alone and with 3.5 μM RecO (2.5 molar excess per C-terminus); buffer BTP pH 7.0, 200 mM NaCl
[7] = target: T1, Escherichia coli RecO protein (E. coli, UniProt P0A7H3 1-242); assay: ITC; P15 and RecO; buffer BTP pH 8, 200 mM NaCl, 25°C; N fixed to 1; conditions: both partners purified
T1 construct: E. coli RecO, recombination mediator of the RecF pathway; source: E. coli BL21(DE3)pLysS, plasmid pMCSG7, purified (Ni-NTA, HiTrap Heparin HP) after His-tag cleavage with TEV protease
T1 sequence (looked up): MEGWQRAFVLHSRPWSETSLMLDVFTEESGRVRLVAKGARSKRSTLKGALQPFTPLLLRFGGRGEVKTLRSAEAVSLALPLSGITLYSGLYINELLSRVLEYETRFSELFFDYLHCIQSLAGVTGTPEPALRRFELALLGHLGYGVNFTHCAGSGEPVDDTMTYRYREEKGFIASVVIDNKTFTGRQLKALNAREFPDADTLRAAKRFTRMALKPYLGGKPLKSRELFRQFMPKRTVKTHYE

[8] = target: T1, Escherichia coli RecO protein; assay: ITC; P15 and RecO; buffer BTP pH 7.0, 200 mM NaCl, 15°C; N fixed to 1; conditions: both partners purified
[9] = target: T1, Escherichia coli RecO protein; assay: ITC; P15 and RecO; buffer BTP pH 7.0, 200 mM NaCl, 25°C; N fixed to 1; conditions: both partners purified
[10] = target: T1, Escherichia coli RecO protein; assay: ITC; P15 and RecO; buffer BTP pH 7.0, 200 mM NaCl, 37°C; N fixed to 1; conditions: both partners purified
Escherichia coli PriC [11] = target: T2, Escherichia coli PriC (E. coli, UniProt P23862 1-175); assay: ITC; SSB-Ct peptide titrated into PriC; buffer BTP pH 8.0, 10 mM NaCl, 25°C; N fixed to 1 for the values of Table 1; conditions: both partners purified
T2 construct: E. coli PriC, replication restart protein; source: E. coli BL21(DE3), plasmid pET11a-EcoPriC (pAM001), purified (Macro-Prep High S, HiPrep Sephacryl S-200 HR)
T2 sequence (looked up): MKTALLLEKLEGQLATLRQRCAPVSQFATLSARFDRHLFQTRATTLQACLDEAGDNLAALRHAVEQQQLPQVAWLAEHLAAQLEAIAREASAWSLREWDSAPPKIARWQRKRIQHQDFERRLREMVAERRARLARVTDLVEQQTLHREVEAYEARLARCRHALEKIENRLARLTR

Escherichia coli PriC [12] = target: T2, Escherichia coli PriC; assay: as above; conditions: both partners purified; remark: listed apart in the source
[13] = target: T1, Escherichia coli RecO protein; assay: ITC; SSB-Ct peptide (40–50 μM) titrated into SIP (1–2 μM); buffer BTP (20 mM Bis-Tris Propane, 25% glycerol, 1 mM TCEP) pH 8.0, 50 mM NaCl, 25°C; observed association constants; N fixed to 1 for the values of Table 1; conditions: both partners purified
Escherichia coli PriA [14] = target: T3, Escherichia coli PriA (E. coli, UniProt P17888 1-732); assay: as above; conditions: both partners purified
T3 construct: E. coli PriA, replication restart protein

[15] = target: T4, chi (χ) subunit of DNA polymerase III (E. coli, UniProt P28905 1-147); assay: as above; conditions: both partners purified
T4 construct: E. coli DNA polymerase III chi subunit; also called χ protein; DNA Pol III (χ)

[16] = target: T1, Escherichia coli RecO protein; assay: as above; conditions: both partners purified; remark: listed apart in the source
Escherichia coli PriA [17] = target: T3, Escherichia coli PriA; assay: as above; conditions: both partners purified; remark: listed apart in the source
[18] = target: T4, chi (χ) subunit of DNA polymerase III; assay: as above; conditions: both partners purified; remark: listed apart in the source
[19] = target: P65 (SSB C-terminal peptide) (Escherichia coli, UniProt P0AGE0 114-178); assay: ITC; no detectable interaction; ITC; buffer BTP (20 mM Bis-Tris propane, 25% v/v glycerol, 1 mM TCEP), pH 7.0, 200 mM NaCl, 25 C for SSB experiments; buffer/pH of individual (dT)70 titrations; conditions: single-stranded
SSB (wtSSB) = SSB (wtSSB) (Escherichia coli, UniProt P0AGE0 2-178); assay: ITC; 1:1 complex at 200 mM NaCl, (SSB)65 mode; (dT)70 (15 uM) titrated with SSB; ITC; buffer BTP (20 mM Bis-Tris propane, 25% v/v glycerol, 1 mM TCEP), pH 7.0, 200 mM NaCl, 25 C for SSB experiments; buffer/pH of individual (dT)70 titrations; conditions: protein: recombinant; chain copies: 4; single-stranded
SSB-A = SSB-A (Escherichia coli, UniProt P0AGE0 2-178+=TGASGT, internal_change); assay: ITC; (dT)70 titrated with SSB-A; stoichiometric binding, 1:1; dH similar to wtSSB (-131 kcal/mol in earlier work); ITC; buffer BTP (20 mM Bis-Tris propane, 25% v/v glycerol, 1 mM TCEP), pH 7.0, 200 mM NaCl, 25 C for SSB experiments; buffer/pH of individual (dT)70 titrations; conditions: protein: recombinant; chain copies: 4; single-stranded

Molecule: SSB-A: additional six amino acids, TGASGT, extending the C-terminus of wtSSB
- binding to RecO by ITC (E. coli RecO; absence of ssDNA, BTP pH 7.0, 200 mM NaCl, 15°C and 25°C): not interact with RecO; also recorded: eliminates binding to RecO
- binding to χ by ITC (χ): does not show binding
- binding to (dT)70 by ITC ((dT)70; Buffer T pH 8.1, 200 mM NaCl, 25°C): binds stoichiometrically

Molecule: MDFDDDIPF [P9]
- binding to PriA (PriA): binds with specificity
- affinity and ΔH for χ binding versus (dT)70-bound SSB (DNA Pol III (χ)): very similar
- binding to χ (DNA Pol III (χ); previous study): binds with specificity

Molecule: Escherichia coli PriC (from UniProt P23862 1-175) (natural protein)
- percent of the monomeric species [1]: 48.1%

Molecule: wtSSB: E. coli single strand DNA binding protein, homo-tetramer, wild type
- K (E. coli RecO; apo, 25°C, BTP pH 7, 200 mM NaCl): (1.5 ± 0.2) × 10^6 M^−1
- binding to (dT)70 by ITC ((dT)70; BTP pH 7.0, 200 mM NaCl): binds stoichiometrically
- sedimentation coefficient, SSB alone (RecO): 1.4 S
- complex formation with RecO (RecO; 10-fold molar excess of RecO to SSB tetramer): RecO forms complexes with wtSSB

B1: SSBΔ120-166 tetramer (natural protein, E. coli, UniProt P0AGE0 1-178, looked up)
chain: MASRGVNKVILVGNLGQDPEVRYMPNGGAVANITLATSESWRDKATGEMKEQTEWHRVVLFGKLAEVASEYLRKGSQVYIEGQLRTRKWTDQSGQDRYTTEVVVNVGGTMQMLGGRQGGGPPMDFDDDIPF
notes: E. coli SSB with residues 120-166 of the IDL deleted, acidic tip kept; All three PXXP motifs deleted; only nine residues of the IDL left; Used apo and in complex with (dT)70
- K (observed association equilibrium constant) (E. coli RecO; apo, 25°C, BTP pH 7.0, 200 mM NaCl, N fixed to 4): Not detected
- RecO binding detected by ITC (E. coli RecO; apo, 25°C, pH 7.0, 200 mM NaCl): undetectable; also recorded: could not be detected
- sedimentation coefficient, SSB alone (RecO): 1.3 S
- Ka [2]: 370000 M⁻¹
- dH (per tip, ΔH/4) [2]: -8.1 kcal/mol
- dH (per tip, ΔH/4) [3]: -6 kcal/mol
- Ka [4]: 373000 M⁻¹
- stoichiometry N [4]: 4.03
- dH (per tip, ΔH/4) [5]: 0 kcal/mol
- stoichiometry N [6]: 4

B2: SSB-Ct peptide P15 (C-terminal 15 amino acids of E. coli SSB) (peptide, UniProt P0AGE0 164-178, looked up)
peptide: PSNEPPMDFDDDIPF
notes: E. coli SSB, the C-terminal 15 amino acids; Holds none of the PXXP motifs; also called acidic tip peptide; source: synthetic peptide; bought: WatsonBio
- dH [7]: -3.9 ± 0.1 kcal/mol
- dH [8]: -2.4 ± 0.2 kcal/mol
- dH [9]: -6 ± 0.2 kcal/mol
- dH [10]: -7.8 ± 0.8 kcal/mol
- stoichiometry N (Escherichia coli PriC [11]): 1
- dH (Escherichia coli PriC [12]): -2.7 ± 0.1 kcal/mol
- stoichiometry N [13]: 1
- stoichiometry N (Escherichia coli PriA [14]): 1
- stoichiometry N [15]: 1
- dH [16]: -5.2 ± 0.1 kcal/mol
- dH (Escherichia coli PriA [17]): -9.6 ± 0.3 kcal/mol
- dH [18]: -9.3 ± 0.1 kcal/mol

B3: (dT)70 (ssDNA)
DNA: TTTTTTTTTTTTTTTTTTTTTTTTTTTTTTTTTTTTTTTTTTTTTTTTTTTTTTTTTTTTTTTTTTTTTT
- binding result [19]: no binding
- binding result (SSB (wtSSB)): binds
- binding result (SSB-A): binds
